The target in the experiment is pGBKT7-53 (control bait). The experiment is described as follows: two-hybrid; β-galactosidase activity assay (Yeast β-galactosidase Assay Kit) on a colony from a DDO plate, 37 °C, OD 420 nm; average of three measurements.

Substance “pGADT7-T (control prey) (natural protein)” yielded a β-galactosidase activity of 401 units.

For the origin of these results see paper PMC5625703.
